# Substitutions are numbered along the chain they refer to.
# T1: GFP-9S library array, motif 4 ND D124H (synthetic construct, D124H)
# T1 chain: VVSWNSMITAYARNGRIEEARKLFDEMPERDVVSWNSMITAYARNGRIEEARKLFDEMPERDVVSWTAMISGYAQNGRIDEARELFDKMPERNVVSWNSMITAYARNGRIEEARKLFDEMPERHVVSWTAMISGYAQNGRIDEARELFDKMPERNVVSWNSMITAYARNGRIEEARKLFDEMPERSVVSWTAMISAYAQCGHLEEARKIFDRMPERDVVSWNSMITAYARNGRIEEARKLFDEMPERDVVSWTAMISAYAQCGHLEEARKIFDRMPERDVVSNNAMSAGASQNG
# T2: GFP-9S library array, motif 4 ND N98S;D124T (synthetic construct, N98S;D124T)
# T2 chain: T1 chain with N98S, H124T
# T3: GFP-9S library array, motif 4 ND N98V;D124S (synthetic construct, N98V;D124S)
# T3 chain: T1 chain with N98V, H124S
# T4: GFP-9S library array, motif 4 ND N98K (synthetic construct, N98K)
# T4 chain: T1 chain with N98K, H124D
# T5: GFP-9S library array, motif 4 ND N98H;D124F (synthetic construct, N98H;D124F)
# T5 chain: T1 chain with N98H, H124F
# B1: Cy5-rpoA-G (ssRNA)
# RNA: AUUAGACGUGA
# B2: IR-rpoA-A (ssRNA)
# RNA: AUUAAACGUGA
# B3: IR-rpoA-U (ssRNA)
# RNA: AUUAUACGUGA
# B4: Cy5-rpoA (ssRNA)
# RNA: AUUACACGUGA
# Legend:
# Assay in all cases: high-throughput RNA pulldown from lysate on Ni-NTA beads; HRP: 50 mM Tris pH 8, 150 mM NaCl, 1 mM beta-mercaptoethanol, 50 ug/ml BSA, 3 ug/ml yeast RNA, 0.5% heparin; ITC and FP: Tris pH 8, 200 mM KCl, 5% glycerol; MST: 50 mM Tris pH 8, 200 mM NaCl, 1 mM DTT, BSA, heparin, 0.05% Tween 20
# Conditions in all cases: tags: N-terminal His-eGFP
# [1] = molecular target: T1, GFP-9S library array, motif 4 ND D124H
# [2] = molecular target: T2, GFP-9S library array, motif 4 ND …
# [3] = molecular target: T3, GFP-9S library array, motif 4 ND …
# [4] = molecular target: T4, GFP-9S library array, motif 4 ND N98K
# [5] = molecular target: T5, GFP-9S library array, motif 4 ND …
Binder,Kd ([1]; label: 5' Cy5),Kd ([2]; label: 5' Cy5),Kd ([3]; label: 5' Cy5),Kd ([4]; label: 5' Cy5),Kd ([5]; label: 5' Cy5),Kd ([1]; label: 5' IRDye 800CW),Kd ([2]; label: 5' IRDye 800CW),Kd ([3]; label: 5' IRDye 800CW),Kd ([4]; label: 5' IRDye 800CW),Kd ([5]; label: 5' IRDye 800CW)
B1,287 nM,291 nM,50.4 nM,315 nM,134 nM,,,,,
B2,,,,,,285 nM,72.3 nM,26.8 nM,409 nM,320 nM
B3,,,,,,40.7 nM,108 nM,50.3 nM,279 nM,204 nM
B4,166 nM,187 nM,69.5 nM,189 nM,140 nM,,,,,
